Assays:
dSH-SY5Y cells [1] = assay: ReadyProbes cell viability assay (cell death) after exposure to dGAE; type: cell-based; conditions: 24 h incubation; for percentage cell death: 1 μM, buffer only 21.6±1.6%
Experimental: (§1) Undifferentiated SH-SY5Y human neuroblastoma cells were grown in Dulbecco's Modified Eagle Medium/Nutrient Mixture F-12 (DMEM/F-12) supplemented with 10% Foetal Calf Serum (FCS), 1% Penicillin/Streptomycin (P/S) and 1% L-glutamine. For differentiation, SH-SY5Y cells were plated at a density of 50,000 cells per well in 24-well plates or 300,000 cells per well in 6-well plates. For immunofluorescence, cells were plated onto Menzel-Gläser coverslips (Thermo Scientific). For live-cell imaging, cells were plated on 35-mm dishes on a 1.5-mm coverslip (Mattek). On the first day of differentiation, media was replaced with low-serum culture media (DMEM/F-12 containing 1% FCS, 1% P/S and 1% L-glutamine) containing 10 μM all-trans retinoic acid (RA) (Sigma-Aldrich) and cells were incubated for 48 h. On day 3, this process was repeated with fresh RA and cells were incubated for a further 48 h. On day 5, the cells were washed once in serum-free culture media to remove traces of serum. […] Differentiated cells (dSH-SY5Y) were ready to use for experiments on day 7. […]
Following the addition of dGAE, cell viability was measured using ReadyProbes® Cell Viability Imaging Kit (Life Technologies). […] DAPI fluorescence was captured using a G 365 excitation filter and a LP 420 emission filter with a FT 395 dichroic. Green fluorescence was captured using a FITC filter set (BP 450-490 excitation filter, BP 515-565 emission filter and FT 510 dichroic). Identical acquisition settings were used for all replicates and images were analysed using FIJI. Six fields of view were taken per sample and an average of 4500 cells were analysed per condition. The proportion of buffer-treated cell death was quantified by converting the images to grayscale followed by manually adjusting the threshold and converting it into a binary image to highlight live DAPI-stained cells. The number of cells was automatically counted. The dead cells were counted in the same way and cell death was expressed as a percentage of buffer-treated cells. […]

dSH-SY5Y cells [2] = assay: Internalisation of dGAE-488 into cells by confocal microscopy; type: cell-based, human; conditions: soluble form, 5 μM dGAE-488, live confocal imaging t=0 h to 14 h
Experimental: as §1
FIJI (https://fiji.sc) imaging processing package (J. Schindelin et al., Nat. Methods, vol. 9, no. 7, pp. 676-682, (2012)) was used for all image analysis. For quantification of fluorescence intensities, images were Z-projected to maximal intensity. […] Area-integrated intensity and mean grey value were measured as well as three selections from around the cell with no fluorescence (background). The corrected total cell fluorescence (CTCF) was then calculated using the equation: […]
For quantification of internalised dGAE-488, a focal plane from the middle of the cell that contained maximal DAPI fluorescence was selected and subjected to analysis.
The uptake of soluble and aggregated dGAE into dSH-SY5Y cells was investigated in order to examine whether aggregation state affects the efficiency of internalisation. The labelled dGAE-488 form was used to permit uptake to be visualised and measured having corrected for total cell fluorescence. […]

“dGAE: recombinant truncated tau, 95 residues fragment of Tau (2N4R), Ile-297 to Glu-391, SEQ ID NO: 4” was tested, and the percentage cell death (dSH-SY5Y cells [1]; aggregated dGAE (100 μM agitated 72 h)) was 34±2.9%, the percentage cell death (dSH-SY5Y cells [1]; soluble dGAE (0 h, no agitation)) was 24.1±1.2% and the “cell death on increasing concentration” value (dSH-SY5Y cells [1]; soluble dGAE up to 20 μM) was “no further increase in cell death”. For the same substance, the “incubation time at which internalised protein is detected in cells” value (dSH-SY5Y cells [2]) was at most 2 h.

Reference: patent US20230266303A1, “SYSTEM” (GTINVENT LIMITED, priority 2020, published 2023)
